Measured values from patent publication US7264932B2, “Nuclease inhibitor cocktail” (Applera Corporation, priority 1999, dated 2007).

How the values were obtained:
[1] = tested on: total RNase activity in spleen lysate; assay: RNaseAlert fluorescent assay, spleen lysate; format: biochemical, mouse; conditions: 0.5 U/ul RIP
Procedure: (§1) Flash-frozen mouse tissues (5 mg) were dounced in 50 ul of 24 mM Hepes, pH 7.2, 50 mM NaCl, 1 mM MgCl2. RNase activity was measured using Ambion's fluorescent RNaseAlert™ assay ([…] substrate, 10 ug/ml ultrapure BSA) via BMG POLARstar Optima Fluorometer according to the manufacturer's protocol. In addition to measuring total RNase activity, lysates were treated with Ap5A, heat (90 C for 10 min), or 0.5 U/ul RIP. Tissue lysate dilutions: pancreas 1:16,200; liver 1:17; thymus 1:17; kidney 1:17; spleen 1:810; lung 1:810. The data were normalized to maximum RNase activity observed in tissue lysate with kidney being the tissue with the lowest RNase activity and assigned the arbitrary unit of 1. […] However, RIP is specific to RNase A superfamily enzymes, where Ap5A, as a RNA analogue, is expected to be a more general RNase inhibitor.

[2] = molecular target: T1, bovine RNase A (Bos taurus, UniProt P61823); assay: Intactness of total RNA (RNA LabChip), bovine RNase A; format: biochemical; conditions: 0.2u/ul rip, 5 pg/ul bovine rnase a, e. coli total rna, room temperature 4 min
T1 sequence (P61823 27-150): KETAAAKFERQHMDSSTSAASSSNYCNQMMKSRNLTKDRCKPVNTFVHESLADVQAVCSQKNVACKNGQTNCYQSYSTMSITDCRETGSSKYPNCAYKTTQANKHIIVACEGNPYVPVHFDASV
Procedure: A total of 100 pg/ul e. […].
Mouse pancreatic tissue (5 mg) was disrupted in 50 ul of 24 mM Hepes, pH 7.2, 50 mM NaCl, 1 mM MgCl2. The diluted lysate (1:20,000) was pre-incubated with 50 uM Benzopurpurin B (BpB) for 30 sec and then added to 100 ng/ul mouse liver total RNA (Ambion) and incubated at 23 C for an additional 4 min. Samples were quenched in a guanidinium lysis buffer, and the RNA purified via MEGAclear™ MAG-96 and eluted with 20 ul nuclease-free water. […] These experiments were conducted in the same fashion except that 100 uM BpB was employed. The sample (1 ul) was analyzed by 2100 BioAnalyzer software (Agilent) after separation on an RNA LabChip.
Pancreatic tissue (5 mg) was dounced in 50 ul of 24 mM Hepes, pH 7.2, 50 mM NaCl, 1 mM MgCl2. The lysate was diluted (1:20,000) and then pre-incubated with 200 uM of 467929. […] All samples were pre-incubated for 30 sec before being added to 100 ng/ul mouse liver total RNA (Ambion) and incubated at 23C for an additional 4 min. The RNA was then immediately purified via MEGAclear™ MAG-96 and eluted with 20 ul nuclease-free water. The recovered RNA (1 ul) was analyzed by 2100 BioAnalyzer software after separation on an RNA LabChip.

[3] = tested on: total RNase activity in lung lysate; assay: RNaseAlert fluorescent assay, lung lysate; format: biochemical, mouse; conditions: 0.5 U/ul RIP
Procedure: as §1

[4] = tested on: total RNase activity in pancreas lysate; assay: RNaseAlert fluorescent assay, pancreas lysate; format: biochemical, mouse; conditions: Pancreas, 0.5 U/ul RIP
Procedure: as §1
Pancreatic tissue (5 mg) was dounced in 50ul of 24 mM Hepes, pH 7.2, 50 mM NaCl, 1 mM MgCl2. Diluted pancreas lysate (1:12,000) was subjected to a 1/10 volume of negatively charged SP resin. RNase activity of the clarified lysate was measured using. Ambion's fluorescent RNaseAlert™ assay (40 nM substrate, 10 ug/ml ultrapure BSA) via BMG POLARstar Optima, according to the manufacturer's instructions. Resin treatment removed >95% of total RNase activity in diluted pancreas lysate. […]

[5] = tested on: total RNase activity in murine kidney plus pancreatic lysate; assay: Proteinase K inactivation of total RNase activity in kidney lysate with pancreatic lysate; format: biochemical; conditions: 600 ng/uL PK
Procedure: Murine kidney (40 ul of 0.1 mg/ul) was introduced into a 50 uL reaction with a dilute pancreatic lysate (1 or 10 ul of pancreas at 0.1 mg/ul) prepared in 24 mM Hepes, pH 7.2, 50 mM NaCl, 1 MM MgCl2. All samples were digested at 50C for 5 min in PK buffer at 23C. […] Although proteinase K is a protein-based inhibitor, RNase inactivation occurs by a very different mechanism than a protein inhibitor such as RIP, since proteinase K digests RNase proteins to peptide fragments, thereby destroying the folded (active) conformation of the enzyme.

Molecule | % Inhibition [1] [%] | Slope/sec Final (After RIP addition) [1] | protection of total RNA from degradation [2] | % Inhibition [3] [%] | Slope/sec Final (After RIP addition) [3] | % Inhibition [4] [%] | Slope/sec Final (After RIP addition) [4] | Fold Reduction ([5]; 1 uL pancreas) | Slope ([5]; 1 uL pancreas) [RFU/sec] | Fold Reduction ([5]; 10 uL pancreas) | Slope ([5]; 10 uL pancreas) [RFU/sec] | Slope ([5]; No pancreas) [RFU/sec]
RIP: human placental RNase Inhibitor Protein (protein, UniProt P13489 2-461, looked up) Ribonuclease inhibitor: SLDIQSLDIQCEELSDARWAELLPLLQQCQVVRLDDCGLTEARCKDISSALRVNPALAELNLRSNELGDVGVHCVLQGLQTPSCKIQKLSLQNCCLTGAGCGVLSSTLRTLPTLQELHLSDNLLGDAGLQLLCEGLLDPQCRLEKLQLEYCSLSAASCEPLASVLRAKPDFKELTVSNNDINEAGVRVLCQGLKDSPCQLEALKLESCGVTSDNCRDLCGIVASKASLRELALGSNKLGDVGMAELCPGLLHPSSRLRTLWIWECGITAKGCGDLCRVLRAKESLKELSLAGNELGDEGARLLCETLLEPGCQLESLWVKSCSFTAACCSHFSSVLAQNRFLLELQISNNRLEDAGVRELCQGLGQPGSVLRVLWLADCDVSDSSCSSLAATLLANHSLRELDLSNNCLGDAGILQLVESVRQPGCLLEQLVLYDIYWSEEMEDRLQALEKDKPSLRVIS | 98.0 | 1.08 | significant protection | 99.3 | 0.21 | 99.7 | 0.17 | – | – | – | – | –
PK: proteinase K, protease that digests RNase proteins to peptide fragments (protein, UniProt P06873 106-384, looked up) Proteinase K: AAQTNAPWGLARISSTSPGTSTYYYDESAGQGSCVYVIDTGIEASHPEFEGRAQMVKTYYYSSRDGNGHGTHCAGTVGSRTYGVAKKTQLFGVKVLDDNGSGQYSTIIAGMDFVASDKNNRNCPKGVVASLSLGGGYSSSVNSAAARLQSSGVMVAVAAGNNNADARNYSPASEPSVCTVGASDRYDRRSSFSNYGSVLDIFGPGTSILSTWIGGSTRSISGTSMATPHVAGLAAYLMTLGKTTAASACRYIADTANKGDLSNIPFGTVNLLAYNNYQA | – | – | – | – | – | – | – | 1283 | 0.0938 | 242 | 0.6074 | 0.0123
